Experimental data: article doi:10.1101/2022.01.14.476392 (bioRxiv, 2022)

Molecular target: the molecule itself
Test: BLI

B1: diol-dehydratase PduCDE (complex, Salmonella enterica)
chain 1: MRSKRFEALAKRPVNQDGFVKEWIEEGFIAMESPNDPKPSIKIVNGAVTELDGKPVSEFDLIDHFIARYGINLNRAEEVMAMDSVKLANMLCDPNVKRSEIVPLTTAMTPAKIVEVVSHMNVVEMMMAMQKMRARRTPSQQAHVTNVKDNPVQIAADAAEGAWRGFDEQETTVAVARYAPFNAIALLVGSQVGRPGVLTQCSLEEATELKLGMLGHTCYAETISVYGTEPVFTDGDDTPWSKGFLASSYASRGLKMRFTSGSGSEVQMGYAEGKSMLYLEARCIYITKAAGVQGLQNGSVSCIGVPSAVPSGIRAVLAENLICSSLDLECASSNDQTFTHSDMRRTARLLMQFLPGTDFISSGYSAVPNYDNMFAGSNEDAEDFDDYNVIQRDLKVDGGLRPVREEDVIAIRNKAARALQAVFAGMGLPPITDEEVEAATYAHGSKDMPERNIVEDIKFAQEIINKNRNGLEVVKALAQGGFTDVAQDMLNIQKAKLTGDYLHTSAIIVGDGQVLSAVNDVNDYAGPATGYRLQGERWEEIKNIPGALDPNEID
chain 2: MEINEKLLRQIIEDVLRDMKGSDKPVSFNAPAASTAPQTAAPAGDGFLTEVGEARQGTQQDEVIIAVGPAFGLAQTVNIVGLPHKSILREVIAGIEEEGIKARVIRCFKSSDVAFVAVEGNRLSGSGISIGIQSKGTTVIHQQGLPPLSNLELFPQAPLLTLETYRQIGKNAARYAKRESPQPVPTLNDQMARPKYQAKSAILHIKETKYVVTGKNPQELRVAL
chain 3: MNTDAIESMVRDVLSRMNSLQGDAPAAAPAAGGTSRSAKVSDYPLANKHPEWVKTATNKTLDDFTLENVLSNKVTAQDMRITPETLRLQASIAKDAGRDRLAMNFERAAELTAVPDDRILEIYNALRPYRSTKEELLAIADDLENRYQAKICAAFVREAAGLYVERKKLKGDD
Q: B1 was tested. Which Kd did it give?
A: Its Kd is 3.5 µM.
